Test results published in US20030232387A1.

Molecular target: mutant αEβ7 integrin, αE ΔE163-E180, on transfected K562 cells (human) (UniProt P38570)
Test: flow cytometry on K562 cells expressing mutant αEβ7

mutant αEβ7 integrin, αE ΔE163-E180, on transfected K562 cells (human), sequence (P38570 other isoform, or with tags, fused parts or gaps mutant, chain 1 of 2): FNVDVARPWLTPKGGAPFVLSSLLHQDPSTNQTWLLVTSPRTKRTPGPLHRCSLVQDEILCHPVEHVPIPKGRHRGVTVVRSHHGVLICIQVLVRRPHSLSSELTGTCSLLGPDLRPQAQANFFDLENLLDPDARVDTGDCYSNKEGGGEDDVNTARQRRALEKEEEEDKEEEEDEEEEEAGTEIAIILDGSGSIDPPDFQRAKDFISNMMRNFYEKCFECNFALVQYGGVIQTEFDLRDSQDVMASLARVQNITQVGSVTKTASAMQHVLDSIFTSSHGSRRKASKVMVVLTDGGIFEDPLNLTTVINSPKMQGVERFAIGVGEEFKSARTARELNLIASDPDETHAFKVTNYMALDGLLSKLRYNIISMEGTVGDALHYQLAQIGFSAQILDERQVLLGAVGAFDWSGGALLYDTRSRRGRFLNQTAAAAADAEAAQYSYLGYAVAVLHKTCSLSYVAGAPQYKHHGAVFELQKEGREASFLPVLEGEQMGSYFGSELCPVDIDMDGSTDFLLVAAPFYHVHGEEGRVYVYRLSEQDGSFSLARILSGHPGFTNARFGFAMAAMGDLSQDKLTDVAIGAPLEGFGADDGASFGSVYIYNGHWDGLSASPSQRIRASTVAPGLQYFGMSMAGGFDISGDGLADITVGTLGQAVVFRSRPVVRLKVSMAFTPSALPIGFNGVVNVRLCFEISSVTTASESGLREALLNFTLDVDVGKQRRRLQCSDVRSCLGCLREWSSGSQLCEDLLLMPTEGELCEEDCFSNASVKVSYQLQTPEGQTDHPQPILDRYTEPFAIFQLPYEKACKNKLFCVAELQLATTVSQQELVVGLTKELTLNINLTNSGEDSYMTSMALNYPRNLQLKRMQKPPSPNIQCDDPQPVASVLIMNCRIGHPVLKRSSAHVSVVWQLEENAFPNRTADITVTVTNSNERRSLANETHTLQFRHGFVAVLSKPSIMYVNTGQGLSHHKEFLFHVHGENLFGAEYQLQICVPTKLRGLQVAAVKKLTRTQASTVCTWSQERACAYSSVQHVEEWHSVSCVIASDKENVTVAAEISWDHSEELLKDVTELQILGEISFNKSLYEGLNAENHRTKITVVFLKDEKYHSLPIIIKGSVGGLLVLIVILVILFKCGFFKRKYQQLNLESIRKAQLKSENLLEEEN
mutant αEβ7 integrin, αE ΔE163-E180, on transfected K562 cells (human), sequence (chain, as listed by the source mutant, chain 2 of 2): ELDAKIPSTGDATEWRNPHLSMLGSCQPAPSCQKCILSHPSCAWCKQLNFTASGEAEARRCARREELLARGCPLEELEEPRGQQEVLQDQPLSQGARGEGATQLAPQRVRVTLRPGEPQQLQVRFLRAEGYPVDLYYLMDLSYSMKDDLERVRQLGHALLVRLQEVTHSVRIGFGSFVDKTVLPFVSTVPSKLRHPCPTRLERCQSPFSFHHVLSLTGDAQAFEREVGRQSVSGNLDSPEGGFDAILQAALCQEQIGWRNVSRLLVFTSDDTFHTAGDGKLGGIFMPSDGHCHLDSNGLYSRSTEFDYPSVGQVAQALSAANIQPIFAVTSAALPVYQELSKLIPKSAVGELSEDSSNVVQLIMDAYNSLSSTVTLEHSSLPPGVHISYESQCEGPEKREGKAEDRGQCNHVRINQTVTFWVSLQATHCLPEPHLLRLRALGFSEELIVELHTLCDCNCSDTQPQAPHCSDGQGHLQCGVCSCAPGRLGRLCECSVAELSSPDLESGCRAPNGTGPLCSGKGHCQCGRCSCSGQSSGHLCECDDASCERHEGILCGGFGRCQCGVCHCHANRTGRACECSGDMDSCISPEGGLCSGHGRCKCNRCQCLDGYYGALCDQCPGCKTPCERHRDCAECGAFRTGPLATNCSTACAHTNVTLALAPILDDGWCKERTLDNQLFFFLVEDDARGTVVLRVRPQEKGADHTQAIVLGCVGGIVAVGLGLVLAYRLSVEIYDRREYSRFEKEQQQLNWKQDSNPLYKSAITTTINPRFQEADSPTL

B1: mAb 5E4 (antibody, V domains shown)
VH: EVQLVESGGGLVQPGGSLRLSCAASGFTFSNFWMSWVRQAPGKGLEWMANIKQDGSEKYYVDSVKGRFTISRDNAKSSLFLQMNSLRVDDTAVYFCAGDYYDSGSFYWGQGTLVTVSS
VL: EIVLTQSPATLSLSPGERATLSCRASQSVRSNLAWYQQKPGQAPRLLIYDASNRAIGIPARFSGSGSGTDFTLTISSLEPEDFVVYYCQQRSNWPPWTFGQGTKVEIK
  % Control Staining: 25%
